Data as given in the supplement of paper PMC7877785.
± gives the uncertainty stated by the source.

Assay: self-splicing fitness, log relative to wild type (ln ratio); higher = more splicing; Tetrahymena group I intron in knt gene, E. coli kanamycin selection, DiMSum; sequences stand for … in CUCUCU…GGAGGGAAAAGUUAUCAGGCAUGCACCUGGUAGCUAGUCUUUAAACCAAUAGAUUGCAUCGGUUUAAAAGGCAAGACCGUCAAAUUGCGGGAAAGGGGUCAACAGCCGUUCAGUACCAAGUCUCAGGGGAAACUUUGAGAUGGCCUUGCAAAGGGUAUGGUAAUAAGCUGACGGACAUGGUCCUAACCACGCAGCCAAGUCCUAAGUCAACAGAUCUUCUGUUGAUAUGGAUGCAGUUCACAGACUAAAUGUCGGUCGGGGAAGAUGUAUUCUUCUCAUAAGAUAUAGUCGGACCUCUCCUUAAUGGGAGCUAGCGGAUGAAGUGAUGCAACACUGGAGCCGCUGGGAACUAAUUUGUAUGCGAAAGUAUAUUGAUUAGUUUUGGAGUACUCGUGGUCG
In short: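 Colonies from six replicate transformations of E. coli BL21(DE3) were pooled and amplicon-sequenced on an Illumina HiSeq 2500. The library placed an intron with all eight P1ex-region nucleotides randomised inside the knt kanamycin-resistance gene on pET-22b(+), and cells grew overnight at 37°C or 30°C on LB agar with or without 25 μg/mL kanamycin (plus 100 μg/mL carbenicillin, 50 μM IPTG, 0.2% rhamnose). Fitness is the DiMSum error-weighted combination of wild-type-normalised replicate fold changes, kanamycin versus none.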

Row | Sequence | self-splicing fitness (ln) (30 °C) | self-splicing fitness (ln) (37 °C)
1 | GAUUAGCAAUAUUACGUUUA | -2.9 ± 0.25 | -1.05 ± 0.15
2 | GCGAAGCAAUAUUACGGCGC | -2.48 ± 0.29 | -1.01 ± 0.43
3 | GGUUAGCAAUAUUACGUUAA | -2.32 ± 0.19 | -0.699 ± 0.16
4 | ACCCAGCAAUAUUACGUAGG | -0.517 ± 0.064 | -0.48 ± 0.081
5 | CGAUAGCAAUAUUACGAGCU | -3.42 ± 0.4 | -3.09 ± 0.35
6 | UGAUAGCAAUAUUACGUCCU | -0.302 ± 0.07 | 0.376 ± 0.1
7 | UGAAAGCAAUAUUACGGUCA | -0.166 ± 0.077 | 0.339 ± 0.1
8 | ACGCAGCAAUAUUACGUUGU | -3.57 ± 0.13 | -2.84 ± 0.12
9 | GCGUAGCAAUAUUACGUCAC | – | -0.245 ± 0.37
10 | AGCGAGCAAUAUUACGUCCC | -1 ± 0.11 | -0.699 ± 0.14
11 | CCGUAGCAAUAUUACGGAUG | -3.56 ± 0.3 | -2.11 ± 0.23
12 | UCCGAGCAAUAUUACGGCUA | -0.436 ± 0.096 | -0.18 ± 0.1
13 | ACCCAGCAAUAUUACGGACG | -1.1 ± 0.07 | -0.9 ± 0.08
14 | CGAAAGCAAUAUUACGACGA | -0.59 ± 0.094 | 0.312 ± 0.09
15 | AACAAGCAAUAUUACGGGCA | -0.586 ± 0.058 | -0.0288 ± 0.066
16 | UUCGAGCAAUAUUACGUAGG | -2.9 ± 0.2 | -1.52 ± 0.19
17 | GGGCAGCAAUAUUACGAAAU | -1.42 ± 0.25 | -1.24 ± 0.22
18 | UGCGAGCAAUAUUACGGUAC | -4.18 ± 0.3 | -3.26 ± 0.23
19 | GCAGAGCAAUAUUACGUGAU | -2.24 ± 0.16 | -1.5 ± 0.18
20 | GGCGAGCAAUAUUACGGUGU | -2.02 ± 0.25 | -1.55 ± 0.17
21 | CUGUAGCAAUAUUACGUAUC | -4.3 ± 0.47 | -1.57 ± 0.38
22 | AUCCAGCAAUAUUACGGACG | 0.0252 ± 0.082 | -0.0752 ± 0.089
23 | GUCGAGCAAUAUUACGACAU | -0.997 ± 0.015 | -0.465 ± 0.033
24 | GUCUAGCAAUAUUACGUUCC | -1.14 ± 0.16 | -0.649 ± 0.2

Row | Sequence | self-splicing fitness (ln) (30 °C) | self-splicing fitness (ln) (37 °C)
25 | GUACAGCAAUAUUACGCUGA | -2.47 ± 0.12 | -1.33 ± 0.1
26 | ACACAGCAAUAUUACGAAUG | -2.63 ± 0.1 | -1.08 ± 0.084
27 | ACUAAGCAAUAUUACGGAAG | -2.59 ± 0.13 | -1.55 ± 0.15
28 | UAUGAGCAAUAUUACGUCGA | -3.12 ± 0.38 | -2.47 ± 0.36
29 | GGGUAGCAAUAUUACGUAAA | -0.962 ± 0.13 | -0.0364 ± 0.15
30 | UGUUAGCAAUAUUACGUAAC | -1.65 ± 0.46 | -1.55 ± 0.5
31 | UCCGAGCAAUAUUACGGGCG | -3.47 ± 0.35 | -1.68 ± 0.36
32 | ACUGAGCAAUAUUACGGUCG | -3.49 ± 0.16 | -1.46 ± 0.16
33 | UUCAAGCAAUAUUACGGACC | -2.45 ± 0.25 | -2.97 ± 0.21
34 | UCUUAGCAAUAUUACGUGAU | -2.43 ± 0.28 | -2.01 ± 0.38
35 | GUAUAGCAAUAUUACGUUGA | -2.87 ± 0.21 | -1.41 ± 0.18
36 | GGUAAGCAAUAUUACGAUCA | -0.121 ± 0.1 | -0.203 ± 0.1
37 | AGCUAGCAAUAUUACGAAUA | -3.3 ± 0.27 | -2.35 ± 0.24
38 | CGAAAGCAAUAUUACGAGCG | -0.778 ± 0.098 | -0.277 ± 0.11
39 | GAUCAGCAAUAUUACGAGGG | -1.99 ± 0.11 | -2.17 ± 0.18
40 | UAUUAGCAAUAUUACGUCGG | -1.21 ± 0.12 | -0.795 ± 0.15
41 | UAGAAGCAAUAUUACGCACG | -0.11 ± 0.23 | -0.0394 ± 0.23
42 | GAAGAGCAAUAUUACGAAUU | -3.24 ± 0.18 | -2.21 ± 0.23
43 | CGGAAGCAAUAUUACGAUAC | -2.26 ± 0.18 | -2.22 ± 0.21
44 | UGGAAGCAAUAUUACGGCGU | -1.16 ± 0.13 | 0.0292 ± 0.12
45 | UAUCAGCAAUAUUACGAGUA | -0.337 ± 0.079 | -0.301 ± 0.088
46 | GGCGAGCAAUAUUACGAUCC | -0.772 ± 0.092 | -0.128 ± 0.12
47 | AGGAAGCAAUAUUACGUGCC | -1.72 ± 0.22 | -0.175 ± 0.23
